Experimental findings from patent US20190016826A1 (Genentech, published 2019) are described below.

Assay [1] addresses Protease domain of murine HtrA1 (MuHtrA1_PD) (G156-S367) (murine, UniProt Q9R118 156-367). Kind of assay: SPR (BIAcore T100), single-cycle kinetics, biotinylated MuHtrA1_PD captured on streptavidin, Fab in solution. The protocol: Briefly, series S sensor chip CM5 was activated with EDC and NHS reagents according to the supplier's instructions, and streptavidin (Pierce) was coupled to achieve approximately 2000 response units (RU), followed by blocking unreacted groups with 1M ethanolamine.
The sensorgrams were recorded and evaluated by BIAcore™ T100 Evaluation Software (version 2.0) after subtraction of reference cell signal. Association rates (kₒₙ) and dissociation rates (koff) were calculated using a simple one-to-one Langmuir binding model. The equilibrium dissociation constant (KD) was calculated as the ratio […] (see Table 1 below).
A general note: Surface plasmon resonance follows binding to a sensor surface in real time, without labels.

Assay [2] addresses T1, Protease domain of human HtrA1 (HuHtrA1_PD), residues D161-K379 (human, UniProt F1N152 168-386 (bovine entry)).
T1 construct: Expressed in E. coli; not shown: thrombin cleavage site between tag and D161
The assay is described as follows: ELISA on plate-coated wild-type HuHtrA1_PD, row WT (Example 7); column head on the sheet reads YW505.94 Fab, legend paragraph 70 says IgG94. Here is the method: The mutants were expressed in E. coli and the trimers purified by size exclusion chromatography as described in Example 2. Binding was determined using an ELISA assay, which was conducted using a MAXISORP™ microtiter plate coated with HuHtrA1_PD mutants at 2 μg/ml in PBS for 1 h, followed by blocking with PBST buffer (0.5% BSA and 0.05% Tween 20 in PBS) for 1 h at room temperature. […] The plates were washed with PBT buffer (0.05% Tween 20 in PBS), and HRP-conjugated goat anti-human IgG (H+L) (Invitrogen) was added (1:5000 in PBST buffer) and incubated for 1 h. The plates were washed with PBT buffer and developed by adding tetramethylbenzidine substrate (Kirkegaard and Perry Laboratories, Gaithersburg, Md.). The absorbance at 450 nm was plotted as a function of antibody concentration in solution to determine EC₅₀ values.
(In general: ELISA stands for enzyme-linked immunosorbent assay.)

The target in assay [3] is T2, Full length human HtrA1 (HuHtrA1) (Q23-P480), N-terminal His6 tag (human, UniProt Q92743 23-480). Kind of assay: cell-based or functional assay.
In assay [4] the target is T2, Full length human HtrA1 (HuHtrA1) …. The assay is described as follows: SPR (BIAcore T100), single-cycle kinetics, biotinylated human HtrA1 captured on streptavidin, Fab in solution. An excerpt: To determine the binding affinity of HtrA1 antibodies by single cycle kinetics, Surface Plasmon Resonance (SRP) measurement with a BIAcore™ T100 instrument was used. Briefly, a series S sensor chip CM5 was activated with EDC and NHS reagents according to the supplier's instructions, and streptavidin (Pierce) was coupled to achieve approximately 2000 response units (RU), followed by blocking un-reacted groups with 1M ethanolamine.
For kinetics measurements, biotinylated human or murine HtrA1 was first injected at 10 ul/min flow rate to capture approximately 100 RU at 3 different flow cells (FC), except for FC1 (reference), and then 5-fold serial dilutions of anti-HtrA1 Fab in HBS-P buffer (0.01M HEPES pH 7.4, 0.15M NaCl, 0.005% surfactant P20) from low (0.48 nM) to high (300 nM) [5 points] were injected (flow rate: 30 μl/min) one after the other in the same cycle with no regeneration between injections. The sensorgram was recorded and subject to reference and buffer subtraction before evaluation by BIAcore™ T100 Evaluation Software (version 2.0). Association rates (km) and dissociation rates (koff) were calculated using a simple one-to-one Langmuir binding model. The equilibrium dissociation constant (Kd) was calculated as the ratio koff/kₒₙ.

T2 sequence (Q92743 other isoform, or with tags, fused parts or gaps): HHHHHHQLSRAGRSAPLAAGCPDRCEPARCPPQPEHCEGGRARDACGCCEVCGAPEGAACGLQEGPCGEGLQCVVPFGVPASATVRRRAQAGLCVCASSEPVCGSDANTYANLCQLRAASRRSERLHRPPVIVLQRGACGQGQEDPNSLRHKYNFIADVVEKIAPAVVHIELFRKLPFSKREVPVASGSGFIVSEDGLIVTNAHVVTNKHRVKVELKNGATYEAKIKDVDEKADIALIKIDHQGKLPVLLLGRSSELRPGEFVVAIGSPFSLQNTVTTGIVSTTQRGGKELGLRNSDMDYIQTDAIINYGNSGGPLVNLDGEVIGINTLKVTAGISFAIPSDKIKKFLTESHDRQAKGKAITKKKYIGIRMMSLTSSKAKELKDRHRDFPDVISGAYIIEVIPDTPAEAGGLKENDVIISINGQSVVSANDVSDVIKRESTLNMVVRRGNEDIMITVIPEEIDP
Chain of Protease domain of murine HtrA1 (MuHtrA1_PD) (G156-S367) (Q9R118 other isoform, or with tags, fused parts or gaps): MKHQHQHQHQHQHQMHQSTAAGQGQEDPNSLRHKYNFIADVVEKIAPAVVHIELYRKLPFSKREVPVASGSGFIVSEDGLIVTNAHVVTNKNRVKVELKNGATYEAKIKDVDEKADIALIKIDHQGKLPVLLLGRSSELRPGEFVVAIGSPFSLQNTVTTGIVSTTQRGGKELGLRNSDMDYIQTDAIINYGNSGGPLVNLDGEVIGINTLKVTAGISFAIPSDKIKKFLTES
T1 sequence (F1N152 other isoform, or with tags, fused parts or gaps): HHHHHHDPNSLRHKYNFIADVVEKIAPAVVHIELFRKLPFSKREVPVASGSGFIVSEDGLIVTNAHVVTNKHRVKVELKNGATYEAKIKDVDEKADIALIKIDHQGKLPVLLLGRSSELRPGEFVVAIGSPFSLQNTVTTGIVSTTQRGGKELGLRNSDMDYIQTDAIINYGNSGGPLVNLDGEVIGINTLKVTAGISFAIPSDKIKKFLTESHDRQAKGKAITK

B1: Fab94 (anti-HtrA1 antibody YW505.94, Fab format) (Fab, V domains shown)
VH: EVQLVESGGGLVQPGGSLRLSCAASGFNISGYYIHWVRQAPGKGLEWVGWIDPYGGDTNYADSVKGRFTISADTSKNTAYLQMNSLRAEDTAVYYCARGTFLTSWGHYFDYWGQGT
VL: DIQMTQSPSSLSASVGDRVTITCRASQDVSTAVAWYQQKPGKAPKLLIYSASFLYSGVPSRFSGSGSGTDFTLTISSLQPEDFATYYCQQSYTTPPTFGQGTKVEIKR
What is called Kd is the equilibrium constant for the complex coming apart. Low values mean a tighter complex, high ones a looser complex. What is called koff is a measure of how fast the partners let go of each other. Higher therefore signals fast dissociation. In general, kon refers to a measure of how fast the partners come together. Higher therefore signals fast association. In general, EC50 refers to the concentration giving half of the maximal effect. The low end stands for greater potency, the high end for weaker potency. In assay [1], B1 came in with a Kd of 0.0289 µM, an off-rate (koff) of 0.0129 s⁻¹ and an association rate constant (kon) of 450000 M⁻¹ s⁻¹. In assay [2], the EC50 was determined as 0.0056 µM and the “Relative to WT EC50 Fold Decrease” value was determined as 1 fold. The “IC50, inhibition of H2-Opt peptide hydrolysis (FRET assay)” value in assay [3] is 0.0291 µM. In addition, in assay [4], the affinity, expressed as Kd, was 0.0311 µM; the koff came out at 0.0109 s⁻¹; the kon worked out at 351000 M⁻¹ s⁻¹.
